Tested on: K4 kissing-loop RNA reporter
Test: apparent KD of K4 kissing-loop reporter; higher = weaker reporter binding
Conditions: Eterna round: R107
Procedure: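 RNA-MaP round R107: designed RNA switches with theophylline, tryptophan, arginine or FMN aptamers are transcribed on-chip within common flanks. They are titrated with a labelled K4 kissing-loop RNA reporter in RNA-MaP buffer (100 mM Tris pH 7.5, 80 mM KCl, 4 mM MgCl2), without ligand or with the indicated ligand. Median apparent KD per design.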

[1] = input ligand: theophylline 20 uM
[2] = input ligand: tryptophan 2.4 mM
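Further: bound reporter read as fluorescence of individual clusters on recovered sequencing chips by microscopy, with normalized cluster intensities fitted with a binding model.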

Sequence	apparent KD of K4 kissing-loop reporter (input ligand: FMN 200 uM)	apparent KD of K4 kissing-loop reporter (input ligand: arginine 13.2 mM)	apparent KD of K4 kissing-loop reporter (input ligand: none)	apparent KD of K4 kissing-loop reporter [1]	apparent KD of K4 kissing-loop reporter [2]
GGCAGUGAUGUUGCCAGUGGCAGAUGCGAAGGAGCGCAGUGAGAUGCAGGUAGGUCGCGCAUUGAAAUUGCUGUCACUAAAAUGC [#2]	0.363 µM	0.369 µM	0.371 µM	0.276 µM	0.234 µM
GGCAGUGAUGUUGCCAGUGGCAGAUUAGAAGGAGCGUGGUGAGACACAGGUAGGUCGCUAAUUGAAAUUGCUGUCACUAAAAUGC [#6]	0.292 µM	0.282 µM	0.3 µM	0.368 µM	0.212 µM
GGCAGUGAUGUUGCCAGUGGCAGAUUGGAAGGAGCGUGGUGAGACACAGGUAGGUCGCUAAUUGAAAUUGCUGUCACUAAAAUGC [whbob_Ex_Arginine_A_2t130]	0.297 µM	0.314 µM	0.307 µM	0.308 µM	0.242 µM
GGCAUGGUGACGCGGCUGCCAUGCACUUGGGAGGAUAUGUUUCGUGACAGAAGGCCCAGUGAUGUUGGGUCUGUUCAAAAGGACU [Lerere]	0.434 µM	0.135 µM	0.146 µM	0.147 µM	0.119 µM
GGCCCGGGCGCGGCCGCCACUCCCUCGUACCGAAAGGUAUGAUACCGAGUGAUGUUCGGUUGGAGGAGGACCGGGCGCCCGGGCC [#2 Exclusion - Tryptophan B Attempt #4 (HarryS)]	0.14 µM	0.129 µM	0.105 µM	0.0807 µM	0.152 µM
GGCGGCCGCGCGUAAGCGCGGCCGGCCGAUACCAGCGCGACGGCGCGCCCUUGGCAGCGGCGCCGAGUGAUGUUCGGCCUGCCGG [#2 Same State - Theophylline A Attempt #17 (HarryS)]	0.376 µM	0.381 µM	0.441 µM	0.465 µM	0.596 µM
GGGAAGAAGGCGGCCGCCACUGCAGAAGAGACAGAGAGAGAAGAAGAGGAGUGAUGUUCCAAGAACAGGACCGGGCCAAGAAGGG [whbob_SS_Tryp_B_t28]	0.167 µM	0.0842 µM	0.102 µM	0.146 µM	0.129 µM
GGGACGCUAGCUCGAAUGUAGUGAUUUGAUACCAGCCUGUCACUUGGCCCUUGGCAGCAAAGCAGAGUGAUGUUCUGACCAACCU [theeternabot_sameState_KL_Theo_A_47]	0.189 µM	0.298 µM	0.235 µM	0.346 µM	0.144 µM
GGGAGGAACUGAGGAUAUUCGAAGAAAUAUAGUGAUGUUAUGUAAGGAGGAGGAGGGAGGGAGGAAGGAGAAGGCAGAAGAGGAG [ExFMNB.A]	0.428 µM	0.415 µM	0.5 µM	0.294 µM	0.433 µM
GGGAGUAGUGCGGCCGCCACUGAGAAAGAAGAAGAAUAUAGUGAUGUUAUAUAGGAAAGGAAGAACAGGACCGGGCAUUAGAUUU [SSTRyptB.F]	0.232 µM	0.22 µM	0.251 µM	0.232 µM	0.18 µM
GGGAGUAGUGCGGCCGCCACUGAGAAAGAAGAAGAUUGUAGUGAUGUUAUGGAGGAAAGGAAGAACAGGACCGGGCAUUAGAUUU [SSTRyptB.I]	1.08 µM	0.735 µM	0.231 µM	0.651 µM	0.684 µM
GGGAGUGAUGUUCCCACGUUGUCGGUCCUUCGAGGACCGGUACGGCCGCCACUCGCGACCCAGUGAUGUUGGGAUUCACCGUACC [Exclusion Tryptophan A Gf 13]	0.431 µM	0.421 µM	0.471 µM	0.506 µM	0.409 µM
GGGCCUAUUGAUGCUGGAGUAAUUCUGGAAGGAGCGCUCAAAGGAGCAGGUAGGUCGCCAGUAUACAAGGGCAGUGAUGUUGCCC [Entimalati]	0.143 µM	0.162 µM	0.161 µM	0.146 µM	0.142 µM
GGGCGGCAGACGGCCGCCACUCAUAGCAGCCAGUGAGUGAUGUUCGUGGCGGAGUGAUGUUCCUAGAGGACCGGGUUUGUUGUUC [Same State Tryptophan B GF 19]	0.551 µM	0.354 µM	0.464 µM	0.471 µM	0.596 µM
GGGUGGCAGGCGGCCGCCACUCUGAGCACCCACUGAGUGAUGUUCGUGGCGUAAGCCUGUUCGUAGAGGACCGGGUUUGUUGUUC [Exclusion Tryptophan B GF 15]	0.413 µM	0.162 µM	0.3 µM	0.281 µM	0.23 µM
GGGUGGGUGCGAGGAUAUGGAGUGAUGUUCCAAAAGAAAAGAAGAGAAGAGAAAGAGAGAAAGAAACCAGAAGGCGCGUCCGUCC	0.115 µM	0.123 µM	0.193 µM	0.238 µM	0.141 µM
GGUAGCAUGGCGGCCGCCACUCAUCGCCUCCCAUCGUCGGGAAGAAUAAGUGUAGUGAUGUUACAGAGGACCGGGCCAUGCUACC	0.472 µM	0.386 µM	0.898 µM	0.494 µM	0.268 µM
GGUAGCAUGGCGGCCGCCACUGAGCAAGUGAUGUUUGCCUCCCUACCCUAGUGUCGAGAGUAUAUCAGGACCGGGCCAUGCUACC	0.188 µM	0.132 µM	0.149 µM	0.164 µM	0.136 µM
GGUAGCAUGGCGGCCGCCACUUACUUCAAUAGGAGUGAUGUUCCUAUUACUAGUAGUGAAAUAAUAAGGACCGGGCCAUGCUACC	0.103 µM	0.0879 µM	0.0952 µM	0.0828 µM	0.0968 µM
GGUAGCGCUAGAGAUACCAGUCAUAUCGCUCUGGAGUGAUGUUCCGGAACGUGCGGAGAAGACCCUUGGCAGCUCAUGACGGUGU [Exclusion Theophylline B GF 4]	0.21 µM	0.194 µM	0.224 µM	0.281 µM	0.214 µM
GGUAGCUAGGUAGGAUAUAGCUAGUGGAGUGAUGUUCCACGAUACACGAGUGAUGUUCGUACCCUGCUAGAAGGGCCUAGCUACC	0.114 µM	0.159 µM	0.168 µM	0.172 µM	0.161 µM
GGUCCGGGCUCGGCCGCCACUCCCUCCUGCCGUAAGGUGGGAUACCGAGUGAUGUUCGGUUGGAGGAGGACCGGGAGCCCGGACC [#2 Exclusion - Tryptophan B Attempt #15 (HarryS)]	0.165 µM	0.113 µM	0.122 µM	0.105 µM	0.107 µM

Sequence	apparent KD of K4 kissing-loop reporter (input ligand: FMN 200 uM)	apparent KD of K4 kissing-loop reporter (input ligand: arginine 13.2 mM)	apparent KD of K4 kissing-loop reporter (input ligand: none)	apparent KD of K4 kissing-loop reporter [1]	apparent KD of K4 kissing-loop reporter [2]
GGUCGAGUGAUGUUCGAUGUUAUGCAUUCAGAGGAUAUAGGAUUGGCUAGAAGGCUGAAUCGAUCUUCGAGUGAUGUUCGAGGAU [Same State FMN A GF 8]	0.116 µM	0.112 µM	0.117 µM	0.101 µM	0.128 µM
GGUCUGCCGCAGUGAUGUUGCUGGCAUACACGAGGACCGGUACGGCCGCCACUCGAUGCUCCAAGAACCACCAAUCUUCGGUAUC [theeternabot_sameState_KL_Trp_A_48]	0.257 µM	0.235 µM	0.229 µM	0.236 µM	0.236 µM
GGUGACAACCAGAGGUGAUGUAUAGAAUAGCGAGGACCGGUACGGCCGCCACUCGUGAAGAGAAAGGAGUGAUGUUCCGUAAUGG [Kazoo C5]	0.33 µM	0.298 µM	0.453 µM	0.485 µM	0.166 µM
GGUGACAGCCAGGAGUGAUGUAUAGAAUAGCGAGGACCGGUACGGCCGCCACUCGUGAAGAGAAGGGAGUGAUGUUCCGUAAUGG [Kazoo C]	0.627 µM	0.185 µM	0.17 µM	0.386 µM	0.14 µM
GGUGCUGUCUGUGCCGCCUUCCUCGUUCCUCGAGGACCGGUACGGCCGCCACUCGAGUGAUGUUUGGGUAGCGAUCCCUGCUAGC [Bdazzled - #15 Exc. Tryptophan A]	1.01 µM	0.737 µM	1.18 µM	1.03 µM	0.917 µM
GGUUAAUAGGAGGAUACCAGUACGAAUAAAGUACAUUAAUAGUAGAGUGAUGUUCUAAAGUACCCUUGGCAGCUUAGAGUUAGUU [#19 K4 Theophylline B Exclusion]	0.128 µM	0.216 µM	0.169 µM	0.257 µM	0.102 µM
GGUUUAUAGGAGGAUACCAGUACGGAUAAAGUACGUUAAUAGUAGAGUGAUGUUCUAAAGUACCCUUGGCAGCUUAGAGUGAGUU [ExTheophylB.L]	0.105 µM	0.157 µM	0.122 µM	0.159 µM	0.0788 µM
GUAAGACCGGGACUCCAGUGAUGUUGGAGGCAGGAUAUCCAGUCGAGGAGAAGGGCCAGGGAUAUCGAGCUGCUCGGUUUGUAGU [Argeis]	0.0819 µM	0.0695 µM	0.0936 µM	0.0789 µM	0.0562 µM
GUACCGCGUGCGGCCGCCACUACAUCAAUUACCUAAGCCUAGUGAUGUUGGGUUUUUGCUACAGGUAGGACCGGGCAGAUGUAUG [theeternabot_sameState_KL_Trp_B_38]	0.292 µM	0.225 µM	0.307 µM	0.263 µM	0.27 µM
GUACCUUGGAAACAAGGACAGCUCACCGAAGGAGCGCGUGAAAACGCAGGUAGGUCGCGGUAGCGGAGUGAUGUUCCGCGAGGGC [Same State Arginine A GF 20]	0.114 µM	0.0995 µM	0.1 µM	0.112 µM	0.106 µM
GUAGCACUCGGUAGUGAUGUUAUCGAGGACAAGGAUAUCAUCUCAAUGAGAAGGUGUCCUUGAUAACAGCUACGGGAAUAUCCCA [Omei KL FMN A Exc D v4]	0.386 µM	0.117 µM	0.134 µM	0.12 µM	0.127 µM
GUAGCCCUAUGUGAUACCAGACGGUAUAAAAUCCUGGCGGCCAGUGAUGUUGGCCAUCGCGUCCCUUGGCAGCACCAAGGCUGUA [theeternabot_sameState_KL_Theo_B_18]	0.122 µM	0.143 µM	0.142 µM	0.118 µM	0.114 µM
GUAGGAUGAGGAGGAGGAUGAAUUACUGAAGGAGCGCAUAUUAAUGCAGGUAGGUCGCGGUAAAGAAGUAUAGUGAUGUUAUAUA [SSArgA.H]	0.238 µM	0.538 µM	0.589 µM	0.399 µM	0.234 µM
GUAGGCUACCGAGGAUAUAGUCCAACGGAGUGAUGUUCCGUCUUUCUUCAUCAUUAACGUUGUGAUCUAGAAGGCGGUAGCCUAC	0.12 µM	0.44 µM	0.723 µM	0.529 µM	0.687 µM
GUAUCGCUAGGAGGAUAUUCCGUUUUUCAUAGCAAUGGCUAUGCGGAGUGAUGUUCCGAUUUACCGGAAGAAGGCCUAGUGAUAC [FMN B 24]	0.108 µM	0.139 µM	0.128 µM	0.148 µM	0.114 µM
GUAUCGCUAGGAGGAUAUUUCAAAUAAUAAAUAAAUGGUUAUACGGAGUGAUGUUCCGAUUUACGGAAAGAAGGCCUAGUGAUAC [FMN B 3]	0.118 µM	0.144 µM	0.155 µM	0.153 µM	0.147 µM
GUAUCGCUAGGAGGAUAUUUCAAAUCGCCAAUAAAUGGUGAUACGGAGUGAUGUUCCGAUUUACGGAAAGAAGGCCUAGUGAUAC [FMN B 6]	0.135 µM	0.269 µM	0.322 µM	0.288 µM	0.268 µM
GUAUCGCUAGGAGGAUAUUUCAAUUUGACUCUUUGAGUUAAUACGGAGUGAUGUUCCGAUUUACGGAAAGAAGGCCUAGUGAUAC [FMN B 13]	0.123 µM	0.203 µM	0.238 µM	0.219 µM	0.21 µM
GUAUCGCUAGGAGGAUAUUUCGUUUUUCAUAGCAAUGGCUAUGCGGAGUGAUGUUCCGAUUUACCGAAAGAAGGCCUAGUGAUAC [FMN B 25]	0.0952 µM	0.0878 µM	0.0992 µM	0.103 µM	0.0988 µM
GUGAAGGAGCUGCAGUGAUGUUGCAGAGACUAGGAUAUCAGGAAACUGAGAAGGAGUCAACUCCUUCACCUAGACACUGCAGAAA [[F]''-[K1]-[K2]-[F1]-[F2]-[F2]'-[F1]'-[K]'_Design1]	0.11 µM	0.108 µM	0.128 µM	0.17 µM	0.143 µM
GUGAGGAGUGGUGUUGAUUAGGGAGCGGAAGGAGCGCCGAGGAAGGCAGGUAGGUCGCCGGAUUAUAGUGAUGUUAUGAAGAGGG [ExArg.K]	0.482 µM	0.523 µM	0.551 µM	0.886 µM	0.338 µM
GUGCGGCUAGUGAUGUUGGUUGCGUGGGAAGGAGCGCAGUAAAAUGCAGGUAGGUCGCCCGCAUCUCUGAUAAAAGAUUAAUUCA [KL-SSArg-A9]	0.276 µM	0.196 µM	0.228 µM	0.238 µM	0.228 µM

— the supplement of paper PMC9170038
